Measurements taken from article PMC7865352, “The Relevance of the SH2 Domain for c-Src Functionality in Triple-Negative Breast Cancer Cells”.

B1: ApSH2.14F (ssDNA)
DNA: GCGGATGAAGACTGGTGTAGACAATGGATACTCCCGCCACCTCCTCCCCCGCCCCCCCGCCCTAAATACGAGCAAC
B2: ApSH2.17F (ssDNA)
DNA: GCGGATGAAGACTGGTGTGCGGTGGTGGGTTGGGTGGGTGGGTTTGCGGGTTGCGTTGGCCCTAAATACGAGCAAC

Target: GST-SH2 (c-Src SH2 domain) (human, UniProt P12931 151-248)
Assay: ELONA; ELONA with plated GST proteins and digoxigenin-labelled aptamers (buffer not given in material); selection in PBS + 1 mM Mg, 37 C
Details: protein: recombinant, label: digoxigenin

Binder	binding result	binding result (G-quadruplex examined in silico)
B1	binds	–
B2	–	binds
